Laboratory results published in patent US10646600B2, “HER2 polypeptides useful for imaging and monitoring tumors and cancers” (GE HEALTHCARE LIMITED, priority 2013, dated 2020).
Entries after “also recorded” stand apart in the source; their conditions may differ.

Tests used:
[1] = system: MCF7 and MCF7-p95HER2 xenografts; experiment: PET-CT imaging and kinetic modeling, HER2 negative xenografts; type: in vivo, mice; conditions: HER2 negative tumors
From the text: Mice were anesthetized through isoflurane inhalation and scanned on a dedicated small animal PET-CT scanner (Siemens Multimodality Inveon, Erlangen, Germany). Low dose CT scans were first acquired (80 kVp, 0.5 mA, 220 degree rotation, 600 ms per degree exposure time, 80 μm reconstruction pixel size) for PET attenuation correction and to obtain an anatomical reference. PET images were acquired following a bolus i.v. injection of approximately 3.7 MBq [^18F]GE-226 in the tail vein. Dynamic emission scans were acquired in list mode format over 60 minutes. The acquired data were sorted into 0.5-mm sinogram bins and 19 time frames for image reconstruction by filtered back projection (4×15 seconds and 4×60 seconds followed by 11×300 seconds). The Siemens Inveon Research Workplace software was used for visualization of radiotracer uptake. 30 to 60-minute cumulative images of the dynamic data were employed to define 3-dimensional (3D) regions of interest (ROI). […] The count densities were averaged for all ROIs at each time point to obtain time versus radioactivity curves (TAC). Tumor TACs were normalized to injected dose measured by a VDC-304 dose calibrator (Veenstra Instruments, Joure, Netherlands) and normalized uptake was expressed as percentage injected dose per mL tissue (NUV; % ID/mL). […]

HER2 positive cell lines = experiment: In vitro uptake assay, HER2 positive cell lines; type: cell-based, human
From the text: MCF7-vector (piRES), MCF7-p95HER2 and MCF7-HER2 cells were a kind gift of Jose Baselga's laboratory (17). MCF7 clones, MDA-MB-231 (ATCC, Manassas, Va.), MDA-MB-361 (Sigma-Aldrich), SKBR-3 (ATCC) and SKOV-3 (Sigma-Aldrich) cells were maintained in DMEM. AGS (Sigma-Aldrich), HGC-27 (Sigma-Aldrich), NCI-N87 (ATCC) and OE-33 (ATCC) cells were maintained in RPMI (Sigma-Aldrich). A431 cells (Sigma-Aldrich) were maintained in MEM Eagle medium (Sigma-Aldrich). Growth media were supplemented with 10% FCS (Lonza, Basel, Switzerland), glutamine and antibiotics (both Invitrogen, Paisley, United Kingdom). A431 cells were additionally supplemented with 1% non-essential amino acids. All cells were cultured at 37° C. in a humidified atmosphere containing 5% CO2.
For baseline uptake in HER2 positive or negative lineages, 3×10^5 cells were seeded in complete media in 12-well plates (Corning, Tewksbury Mass.) and allowed to recover overnight. Cells were washed twice with serum-free medium and pulsed with 370 KBq in 500 μL serum-free medium for one h. […]
Cells were washed with PBS, trypsinized, neutralized with complete medium and centrifuged. […] The radioactivity of 100 μL lysate was counted on a Packard Cobra II gamma counter (Perkin Elmer). Radioactivity was normalized to applied radioactivity and protein content, which was determined for each sample by BCA assay (Pierce, Rockford, Ill.). […]

MCF7-HER2 = experiment: Biodistribution, MCF7-HER2 tumor; type: in vivo, mice; conditions: 60 min
From the text: Mice were sacrificed at different time points by exsanguination.

[^18F]GE-226: HER2-binding 18F-radiolabelled Affibody molecule ZHER2:2891
NUV60 ([1]; PET, 60 minutes): 6.1±0.7 % ID/mL
Ki (net irreversible uptake rate) ([1]; two-tissue irreversible compartmental model): 0.0069±0.0014 mL/cm^3/min
dependence of uptake/binding on EGFR (HER2 positive cell lines): independent of presence of other targets like EGFR; also recorded: independent of expression
Tissue uptake, MCF7-HER2 (MCF7-HER2): 11.06 ± 3.31 % ID/g tissue
